Legend:
[1] = target: L6 antigen (human) (UniProt P30408); experiment: inhibition of the binding of FITC-labelled mouse L6 to 3347 cells, flow cytometry; 50% inhibition; run with the pooled chimeric L6
[2] = target: L6 antigen (human) (UniProt P30408); experiment: inhibition of the binding of FITC-labelled mouse L6 to 3347 cells, flow cytometry; 50% inhibition; run with the chimeric L6 from ascites
[3] = target: L6 antigen (human) (UniProt P30408); experiment: inhibition of the binding of FITC-labelled mouse L6 to 3347 cells, flow cytometry; 50% inhibition
[4] = target: L6 antigen (human) (UniProt P30408); experiment: cell-based or functional assay

Sequence of UniProt P30408 (P30408 whole entry): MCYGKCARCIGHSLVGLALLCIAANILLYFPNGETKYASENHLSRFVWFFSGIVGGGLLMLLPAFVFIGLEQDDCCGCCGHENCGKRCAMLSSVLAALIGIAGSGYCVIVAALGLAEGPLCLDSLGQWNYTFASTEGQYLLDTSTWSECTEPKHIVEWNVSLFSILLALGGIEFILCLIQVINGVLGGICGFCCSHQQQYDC

L6 monoclonal antibody (mouse, IgG2a) gave an IC50 [1] of 2 µg/mL and an IC50 [2] of 2.7 µg/mL.

For “chimeric L6 antibody (from UniProt P01857 1-330)”, the IC50 [3] was 3.4 µg/mL and the tumor killing activity (ADCC or CDC) [4] was 0.01 µg/mL.
